Paper PMC9482650, “Quantitative fragmentomics allow affinity mapping of interactomes” (Nature Communications, 2022)

Tests used:
Experiment in all cases: holdup assay
Set-up in all cases: key: below the threshold = too weak to quantify, mostly under pKd 3.1 to 4
Details in all cases: plain residues with an end cap or a label only (N-terminal biotin on a linker: ado-ado)
DFNB31_2, Q9P202 = target: T1, DFNB31_2, Q9P202
T1 sequence (Q9P202 274-371, limits assumed, looked up): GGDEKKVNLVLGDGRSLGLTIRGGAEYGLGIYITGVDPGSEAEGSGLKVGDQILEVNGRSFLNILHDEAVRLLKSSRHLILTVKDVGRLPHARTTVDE

DFNB31_3, Q9P202 = target: T2, DFNB31_3, Q9P202
T2 sequence (Q9P202 811-907, limits assumed, looked up): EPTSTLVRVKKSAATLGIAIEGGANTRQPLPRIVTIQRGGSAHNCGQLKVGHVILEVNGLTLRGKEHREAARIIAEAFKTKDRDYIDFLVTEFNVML

DLG3_2, Q92796 = target: T3, DLG3_2, Q92796
T3 sequence (Q92796 221-321, limits assumed, looked up): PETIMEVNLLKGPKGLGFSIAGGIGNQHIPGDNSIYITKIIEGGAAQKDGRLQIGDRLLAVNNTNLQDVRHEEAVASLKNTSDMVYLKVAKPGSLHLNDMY

DLG3_3, Q92796 = target: T4, DLG3_3, Q92796
T4 sequence (Q92796 374-475, limits assumed, looked up): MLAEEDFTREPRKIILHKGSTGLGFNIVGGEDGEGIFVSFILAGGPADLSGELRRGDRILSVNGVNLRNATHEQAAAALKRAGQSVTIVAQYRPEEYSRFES

DLG4_3, P78352 = target: DLG4_3, P78352
FRMPD2_3, Q68DX3 = target: FRMPD2_3, Q68DX3
GRIP2_4, Q9C0E4 = target: GRIP2_4, Q9C0E4
HTRA2, O43464 = target: HTRA2, O43464
HTRA4, P83105 = target: T5, HTRA4, P83105
T5 sequence (P83105 378-476, limits assumed, looked up): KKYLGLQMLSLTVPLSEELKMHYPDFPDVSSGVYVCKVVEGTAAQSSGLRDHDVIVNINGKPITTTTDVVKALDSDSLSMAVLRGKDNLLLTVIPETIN

IL16_3, Q14005 = target: IL16_3, Q14005
Inadl_1, Q8NI35 = target: Inadl_1, Q8NI35
Inadl_4, Q8NI35 = target: Inadl_4, Q8NI35
Inadl_5, Q8NI35 = target: Inadl_5, Q8NI35
Inadl_6, Q8NI35 = target: Inadl_6, Q8NI35
LAP2, Q96RT1 = target: LAP2, Q96RT1
LIN7C, Q9NUP9 = target: T6, LIN7C, Q9NUP9
T6 sequence (Q9NUP9 88-185, limits assumed, looked up): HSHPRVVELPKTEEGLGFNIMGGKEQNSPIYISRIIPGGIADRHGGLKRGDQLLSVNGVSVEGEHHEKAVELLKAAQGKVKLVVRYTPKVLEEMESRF

MAGI2_2, Q86UL8 = target: MAGI2_2, Q86UL8
MAGI2_5, Q86UL8 = target: MAGI2_5, Q86UL8
MAST1, Q9Y2H9 = target: MAST1, Q9Y2H9
MPP7, Q5T2T1 = target: T7, MPP7, Q5T2T1
T7 sequence (Q5T2T1 134-230, limits assumed, looked up): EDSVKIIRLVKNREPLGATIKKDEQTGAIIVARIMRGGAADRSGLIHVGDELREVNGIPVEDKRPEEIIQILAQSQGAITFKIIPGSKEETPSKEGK

NOS1, P29475 = target: NOS1, P29475
PDZD2_2, O15018 = target: T8, PDZD2_2, O15018
T8 sequence (O15018 329-429, limits assumed, looked up): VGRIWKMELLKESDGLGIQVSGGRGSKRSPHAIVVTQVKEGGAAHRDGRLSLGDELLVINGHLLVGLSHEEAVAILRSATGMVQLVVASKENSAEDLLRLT

PICK1, Q9NRD5 = target: PICK1, Q9NRD5
PTPN13_1, Q12923 = target: T9, PTPN13_1, Q12923
T9 sequence (Q12923 1088-1188, limits assumed, looked up): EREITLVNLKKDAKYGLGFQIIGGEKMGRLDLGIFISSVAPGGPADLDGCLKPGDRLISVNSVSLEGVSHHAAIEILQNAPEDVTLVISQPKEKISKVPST

RADIL, Q96JH8 = target: T10, RADIL, Q96JH8
T10 sequence (Q96JH8 971-1071, limits assumed, looked up): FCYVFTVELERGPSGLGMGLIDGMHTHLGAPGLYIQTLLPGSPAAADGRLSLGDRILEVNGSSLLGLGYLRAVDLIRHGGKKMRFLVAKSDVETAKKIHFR

SCRIB_3, Q14160 = target: SCRIB_3, Q14160
TX1BP3, O14907 = target: T11, TX1BP3, O14907
T11 sequence (O14907 10-122, limits assumed, looked up): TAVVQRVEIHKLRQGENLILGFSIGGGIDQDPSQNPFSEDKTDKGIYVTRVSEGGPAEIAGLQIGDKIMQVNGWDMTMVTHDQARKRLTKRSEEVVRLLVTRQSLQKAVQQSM

Chain of Inadl_1, Q8NI35 (Q8NI35 113-229): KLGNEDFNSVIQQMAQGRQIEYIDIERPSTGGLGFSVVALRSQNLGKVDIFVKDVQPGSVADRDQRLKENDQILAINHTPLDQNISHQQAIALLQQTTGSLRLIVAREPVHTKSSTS
Chain of MAGI2_2, Q86UL8 (Q86UL8 410-522): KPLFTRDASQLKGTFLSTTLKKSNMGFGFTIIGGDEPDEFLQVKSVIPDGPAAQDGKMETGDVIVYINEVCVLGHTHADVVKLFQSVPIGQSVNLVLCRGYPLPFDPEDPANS
Chain of MAST1, Q9Y2H9 (Q9Y2H9 962-1065): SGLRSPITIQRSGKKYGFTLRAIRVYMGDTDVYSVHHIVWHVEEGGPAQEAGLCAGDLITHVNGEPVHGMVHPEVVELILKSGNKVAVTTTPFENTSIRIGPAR
Chain of DLG4_3, P78352 (P78352 306-403): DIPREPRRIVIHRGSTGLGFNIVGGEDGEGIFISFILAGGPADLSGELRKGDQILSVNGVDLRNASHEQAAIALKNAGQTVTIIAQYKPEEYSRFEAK
Chain of MAGI2_5, Q86UL8 (Q86UL8 915-1017): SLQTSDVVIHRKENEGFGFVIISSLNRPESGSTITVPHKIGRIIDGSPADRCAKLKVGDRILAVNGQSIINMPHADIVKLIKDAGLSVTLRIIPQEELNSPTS
Chain of GRIP2_4, Q9C0E4 (Q9C0E4 446-548): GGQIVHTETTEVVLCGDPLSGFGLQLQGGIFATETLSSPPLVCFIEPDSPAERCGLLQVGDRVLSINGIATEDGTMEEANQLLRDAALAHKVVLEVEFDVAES
Chain of PICK1, Q9NRD5 (Q9NRD5 17-115): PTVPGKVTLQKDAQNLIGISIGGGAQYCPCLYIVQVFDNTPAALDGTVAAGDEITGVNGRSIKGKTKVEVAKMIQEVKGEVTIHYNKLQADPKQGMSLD
Chain of Inadl_5, Q8NI35 (Q8NI35 673-780): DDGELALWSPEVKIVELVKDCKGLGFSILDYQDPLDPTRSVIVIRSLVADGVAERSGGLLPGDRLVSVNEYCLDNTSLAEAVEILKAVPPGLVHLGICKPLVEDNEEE
Chain of LAP2, Q96RT1 (Q96RT1 other isoform, or with tags, fused parts or gaps): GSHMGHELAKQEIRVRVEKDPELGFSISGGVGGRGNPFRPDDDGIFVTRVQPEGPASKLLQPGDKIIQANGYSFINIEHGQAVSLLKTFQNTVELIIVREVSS
Chain of IL16_3, Q14005 (Q14005 1107-1207): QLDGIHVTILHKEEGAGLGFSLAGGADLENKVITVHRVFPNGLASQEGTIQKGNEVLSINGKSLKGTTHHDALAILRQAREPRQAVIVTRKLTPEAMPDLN
Chain of NOS1, P29475 (P29475 9-101): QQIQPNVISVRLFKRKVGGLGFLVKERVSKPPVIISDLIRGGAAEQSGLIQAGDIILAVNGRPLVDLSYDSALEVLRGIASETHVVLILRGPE
Chain of HTRA2, O43464 (O43464 355-458): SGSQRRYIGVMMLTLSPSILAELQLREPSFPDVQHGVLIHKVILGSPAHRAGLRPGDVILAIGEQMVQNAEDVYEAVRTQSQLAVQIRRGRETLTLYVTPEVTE
Chain of Inadl_4, Q8NI35 (Q8NI35 547-651): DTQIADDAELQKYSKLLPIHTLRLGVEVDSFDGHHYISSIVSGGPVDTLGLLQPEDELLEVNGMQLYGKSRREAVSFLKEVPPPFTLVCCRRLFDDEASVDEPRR
Chain of FRMPD2_3, Q68DX3 (Q68DX3 1073-1166): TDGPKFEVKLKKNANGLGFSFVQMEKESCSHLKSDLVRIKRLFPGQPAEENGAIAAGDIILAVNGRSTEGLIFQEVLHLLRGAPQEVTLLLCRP
Chain of Inadl_6, Q8NI35 (Q8NI35 1058-1167): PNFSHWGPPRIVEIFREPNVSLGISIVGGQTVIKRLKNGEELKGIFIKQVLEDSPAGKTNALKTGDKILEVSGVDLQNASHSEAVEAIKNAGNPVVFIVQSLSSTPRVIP
Chain of SCRIB_3, Q14160 (Q14160 999-1103): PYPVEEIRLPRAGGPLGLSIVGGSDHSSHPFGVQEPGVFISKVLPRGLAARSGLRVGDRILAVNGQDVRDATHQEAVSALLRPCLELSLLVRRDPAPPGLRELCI

B1: XKR7, Q5GH72 (peptide)
chain: QELLEYETTV
B1 was tested, and the pKd (DFNB31_2, Q9P202) was “below the threshold”, the pKd (DFNB31_3, Q9P202) was “below the threshold” and the pKd (DLG3_2, Q92796) was 4.85. The pKd (DLG3_3, Q92796) was 3.88, the pKd (DLG4_3, P78352) was “below the threshold” and the pKd (FRMPD2_3, Q68DX3) was 3.63. The pKd (GRIP2_4, Q9C0E4) was “below the threshold”, the pKd (HTRA2, O43464) was “below the threshold” and the pKd (HTRA4, P83105) was “below the threshold”. For the same binder, the pKd (IL16_3, Q14005) was “below the threshold”, the pKd (Inadl_1, Q8NI35) was “below the threshold” and the pKd (Inadl_4, Q8NI35) was “below the threshold”. For the same binder, the pKd (Inadl_5, Q8NI35) was 3.55, the pKd (Inadl_6, Q8NI35) was 4.01 and the pKd (LAP2, Q96RT1) was 4.56. The pKd (LIN7C, Q9NUP9) was 4.79, the pKd (MAGI2_2, Q86UL8) was 3.76 and the pKd (MAGI2_5, Q86UL8) was 4.89. The pKd (MAST1, Q9Y2H9) was 4.97, the pKd (MPP7, Q5T2T1) was “below the threshold” and the pKd (NOS1, P29475) was “below the threshold”. For the same binder, the pKd (PDZD2_2, O15018) was 5.17, the pKd (PICK1, Q9NRD5) was “below the threshold” and the pKd (PTPN13_1, Q12923) was “below the threshold”. For the same binder, the pKd (RADIL, Q96JH8) was 4.73, the pKd (SCRIB_3, Q14160) was 4.81 and the pKd (TX1BP3, O14907) was 3.92.

B2: COMMD3, Q9UBI1 (peptide)
chain: SKSLERATQL
In the case of B2, the pKd (DFNB31_2, Q9P202) is reported as “below the threshold”, the pKd (DFNB31_3, Q9P202) is reported as 4.25 and the pKd (DLG3_2, Q92796) is reported as 4.01. For the same binder, the pKd (DLG3_3, Q92796) was 3.74, the pKd (DLG4_3, P78352) was “below the threshold” and the pKd (FRMPD2_3, Q68DX3) was 3.49. The pKd (GRIP2_4, Q9C0E4) was “below the threshold”, the pKd (HTRA2, O43464) was “below the threshold” and the pKd (HTRA4, P83105) was “below the threshold”. For the same binder, the pKd (IL16_3, Q14005) was “below the threshold”, the pKd (Inadl_1, Q8NI35) was “below the threshold” and the pKd (Inadl_4, Q8NI35) was “below the threshold”. The pKd (Inadl_5, Q8NI35) was “below the threshold”, the pKd (Inadl_6, Q8NI35) was 3.57 and the pKd (LAP2, Q96RT1) was “below the threshold”. For the same binder, the pKd (LIN7C, Q9NUP9) was “below the threshold”, the pKd (MAGI2_2, Q86UL8) was 3.71 and the pKd (MAGI2_5, Q86UL8) was 4.49. The pKd (MAST1, Q9Y2H9) was 4.69, the pKd (MPP7, Q5T2T1) was “below the threshold” and the pKd (NOS1, P29475) was 4.02. The pKd (PDZD2_2, O15018) was 3.95, the pKd (PICK1, Q9NRD5) was “below the threshold” and the pKd (PTPN13_1, Q12923) was “below the threshold”. The pKd (RADIL, Q96JH8) was 3.63, the pKd (SCRIB_3, Q14160) was 4.54 and the pKd (TX1BP3, O14907) was “below the threshold”.

B3: MARCHF9, Q86YJ5 (peptide)
chain: REVVMRVTTV
A pKd (DFNB31_2, Q9P202) of 3.6, a pKd (DFNB31_3, Q9P202) of 4.31 and a pKd (DLG3_2, Q92796) of 5.23 were found for B3 in this work. The pKd (DLG3_3, Q92796) was 4.64, the pKd (DLG4_3, P78352) was 4.81 and the pKd (FRMPD2_3, Q68DX3) was “below the threshold”. The pKd (GRIP2_4, Q9C0E4) was “below the threshold”, the pKd (HTRA2, O43464) was 3.56 and the pKd (HTRA4, P83105) was 4.5. For the same binder, the pKd (IL16_3, Q14005) was “below the threshold”, the pKd (Inadl_1, Q8NI35) was “below the threshold” and the pKd (Inadl_4, Q8NI35) was “below the threshold”. For the same binder, the pKd (Inadl_5, Q8NI35) was “below the threshold”, the pKd (Inadl_6, Q8NI35) was 3.89 and the pKd (LAP2, Q96RT1) was 3.87. For the same binder, the pKd (LIN7C, Q9NUP9) was 4.47, the pKd (MAGI2_2, Q86UL8) was 5.14 and the pKd (MAGI2_5, Q86UL8) was 4.12. For the same binder, the pKd (MAST1, Q9Y2H9) was 4.65, the pKd (MPP7, Q5T2T1) was “below the threshold” and the pKd (NOS1, P29475) was 3.76. For the same binder, the pKd (PDZD2_2, O15018) was 4.37, the pKd (PICK1, Q9NRD5) was “below the threshold” and the pKd (PTPN13_1, Q12923) was “below the threshold”. For the same binder, the pKd (RADIL, Q96JH8) was 4.68, the pKd (SCRIB_3, Q14160) was 4.43 and the pKd (TX1BP3, O14907) was 4.61.
